The data set can be described thus: soluble on expression in E. coli; label from the status in PepcDB or PDB records.
For the sequence “MGHHHHHHSHNDGRIMGFVSRSQERRLLKKTMSGTFLLRFSESSEGGITCSWVEHQDDDKVLIYSVQPYTKEVLQSLPLTEIIRHYQLLTEENIPENPLRFLYPRIPRDEAFGCYYQEKVNLQERRKYLKHRLIVVSNRQVDELQQPLELKPEPELESLELELGLVPEPELSLDLEPLLKAGLDLGPELESVLESTLEPVIEPTLCMVS”, the “soluble on expression in E. coli” value is “soluble”.

In the case of “MEFEFIKNTLLGEYAVRCNMEHQIVGRWLQEEIGQDLAKLKHVLTLIDKAEQSPAQEFLWTGREISLLVQGDEITVQENALAYESEHELETDFALYDSESIAACGREDFVALLTQWQSFIQNQGRF”, the “soluble on expression in E. coli” value is listed as “not soluble”.

Consider “MSLAVEIACLDLEGVLVPEIWIAFAEKTGIESLRATTRDIPDYDVLMKQRLRILDEHGLKLADIQAVISTLKPLEGAVEFVDWLRERFQVVILSDTFYEFSQPLMRQLGFPTLLCHRLITDETDRVVSYQLRQKDPKRQSVLAFKSLYYRIIAAGDSYNDTTMLGEADAGILFHAPDNVIREFPQFPAVHTFDELKKEFIKASNRELVLEGHHHHHH”, for which the “soluble on expression in E. coli” value is reported as “soluble”.

As to “MTFALGQRWISDTESDLGLGTVVAMDARTVTLMFAASEENRVYARNDAPVTRVTFNVGDVIDCQEGWSLKVEEVLEDEGLYTYFGTREDTQETAVVLREIFLSNQIRFNKPQDKLYAGQIDRMDNFVLRY”, the “soluble on expression in E. coli” value is “not soluble”.

In the case of “MAHHHHHHMGLVDAYDRAATTEIANESLKDVRPDIVHQCLLALFDSDLAYQHRLRVYMSLFVRQGKVIEVSPALRPPRTYARFRGLMSALLRDGRICSTDGQVLMRLMPGSVAPIIPHGAEVVGLTNSLSSPVVTATQLAQQAVAAPVDDSLQGGIKHVTAFYCISCTDDCNLDGIDYITKSVCLSAYPMTAHVQCARVCEGHTRVEPASSVSGSAAGMGVGGGQAKTDRCSAPEPPKRRGEVFPANQAEDNKL”, the “soluble on expression in E. coli” value is “not soluble”.

As for “MGSDKIHHHHHHMSLIFDIKRYAINDGPGIRITLFMKGCPLSCIWCHNPEGIRNGKDKLYTAKKCLGCGTCLKVCPNGALTLTPEGIITDKQKCVLCGRCAEECPAMAIEISGTEYTAEYLMHEIEKEIPFMDQSGGGVTFCGGEPLLHPEFLIDILKRCGQQGIHRAVDTTLLARKETVDEVMRNCELLLIDLKSMDSTVHQTFCDVPNELILKNIRRVAEADFPYYIRIPLIEGVNADEKNIKLSAEFLASLPRHPEIINLLPYHDIGKGKHAKLGSIYNPKGYKMQTPSEEVQQQCIQILTDYGLKATIGG”, the “soluble on expression in E. coli” value was “not soluble”.

In the case of “MSLGNAPLPFDVGGPFELTDQHGARRSQADPQGHGQLLFFGYATCPGICSAAMPMMADAVDRLAEAGIPVTPVMITVDPERDRPGEMNAPLARYHPDFIGLTGSEAELQAAYSAYSVERELAYVDPEYGPVYTHGAFIYLLDAKGEVLSLFPPILSSDRVVELARKYLGSEGEGHHHHHH”, the “soluble on expression in E. coli” value is “soluble”.

Turning to “MSLITVNTLQKMKAAGEKIAMLTAYESSFAALMDDAGVEMLLVGDSLGMAVQGRKSTLPVSLRDMCYHTECVARGAKNAMIVSDLPFGAYQQSKEQAFAAAAELMAAGAHMVKLEGGVWMAETTEFLQMRGIPVCAHIGLTPQSVFAFGGYKVQGRGGKAQALLNDAKAHDDAGAAVVLMECVLAELAKKVTETVSCPTIGIGAGADCDGQVLVMHDMLGIFPGKTAKFVKNFMQGHDSVQAAVRAYVAEVKAKTFPAAEHIFADEGGSHHHHHH”, the “soluble on expression in E. coli” value is “soluble”.

In the case of “MANAIRLPPEAYPMSIAAQKNDDDRQARALAALAEKPDGIVEAIAAKAEVAPAEILAILPQGAAVSAPADRFDAIWNEMRGWGEILMIVQTGDIVLEVPGHLPEGTESHGWFNIHGDSPIGGHIKKDNCAAITFVDRGFHGRRSCSVWFMNAAGGAMFKIFVRRDENKELLAGQLAKFEELRDGFRGLEHHHHHH”, the “soluble on expression in E. coli” value is “soluble”.

Take “MAHHHHHHMSSELVLAQESAWDKFGSKLKDMPFLNNFFENPILGKLFGETELAAALREMKMYDQNFKLSELMYLFEFVISKHIVESYLIGDEETLRVHCGQSAFNSLNASINERKKKKVYLDTNVLIYKNHELKGAQRMEESSPWFIFTFHTQQINCLKNANDEIIEGNIDDIREVVYTIALSKHPEPEREGLLYPYIVREFAIY”: the “soluble on expression in E. coli” value was “not soluble”.

“MLKTILSIAGKPGLYKLISQGKNMLIVETVDAAKKRVPAYAHDKVISLADIAMYTDAEEVPLSEVLEAVKKKENGAVASINYKKASADELHAYFAEVLPNYDRDRVHNGDIKKLISWYNILVNNGITEFVEAPADSADKVEEAVAELEHHHHHH”: the “soluble on expression in E. coli” value is listed as “soluble”.

“MAGDPMPKNKILIYLLSTTLVLPTLVSPTAYADTPQKDTTAKTTSHDSKKSNDDETSKDTTSKDIDKADNNNTSNQDNNDKKFKTIDDSTSDSNNIIDFIYKNLPQTNINQLLTKNKYDDNYSLTTLIQNLFNLNSDISDYEQPRNGEKSTNDSNKNSDNSIKNDTDTQSSKQDKADNQKAPKSNNTKPSTSNKQPNSPKPTQPNQSNSQPASDDKANQKSSSKDNQSMSDSALDSILDQYSEDAKKTQKDYASQSKKDKNEKSNTKNPQLPTQDELKHKSKPAQSFNNDVNQKDTRATSLFETDPSISNNDDSGQFNVVDSKDTRQFVKSIAKDAHRIGQDNDIYASVMIAQAILESDSGRSALAKSPNHNLFGIKGAFEGNSVPFNTLEADGNKLYSINAGFRKYPSTKESLKDYSDLIKNGIDGNRTIYKPTWKSEADSYKDATSHLSKTYATDPNYAKKLNSIIKHYQLTQFDDERMPDLDKYERSIKDYDDSSDEFKPFREVSDSMPYPHGQCTWYVYNRMKQFGTSISGDLGDAHNWNNRAQYRDYQVSHTPKRHAAVVFEAGQFGADQHYGHVAFVEKVNSDGSIVISESNVKGLGIISHRTINAAAAEELSYITGKLEHHHHHH”: the “soluble on expression in E. coli” value was “soluble”.

For “MVQNNDVDGAFGLLNRLMDSEGMLKIIRRTQFYQKPYMQRKTLSMEASTAIFNEDMNRKMKFLVRKNRPDKHPGQVTS”, the “soluble on expression in E. coli” value is on record as “not soluble”.

As to “MSIEIANIKKSFGRTQVLNDISLDIPSGQMVALLGPSGSGKTTLLRIIAGLEHQTSGHIRFHGTDVSRLHARDRKVGFVFQHYALFRHMTVFDNIAFGLTVLPRRERPNAAAIKAKVTKLLEMVQLAHLADRYPAQLSGGQKQRVALARALAVEPQILLLDEPFGALDAQVRKELRRWLRQLHEELKFTSVFVTHDQEEATEVADRVVVMSQGNIEQADAPDQVWREPATRFVLEFMGEVNRLQGTIRGGQFHVGAHRWPLGYTPAYQGPVDLFLRPWEVDISRRTSLDSPLPVQVLEASPKGHYTQLVVQPLGWYNEPLTVVMHGDDAPQRGERLFVGLQHARLYNGDERIETRDEELALAQSA”, the “soluble on expression in E. coli” value is given as “soluble”.

As to “MKTLHLTFIAKSSKRSHFWLELVWLNNQKKILFCGAGHCKMSPHIIATVTIDDEHHHHHHRSNENYSPSSQDMDSPKPKGRILYCRKCEGHGEKVILKNHSPQCPYILCNCKSCEKLNYKRLKSFNKRNKEKIELAAALNAKRHAPESGSSVDDEEGFSRRSSFCSKTSTPDMDSETRTSSTTPITRSNSTMPTANGLEGRSGSLGHMTVMSYDIWKAKCASERKRLEEERLTKPELFTRSPSPGPMRKRAHTFVAPPTIHTPDIPVVAAKKMSLDEKVKGKFITLPTIPAMRIFVNEEDEDVKPVTQMQLAQPIALTPSPQMSLASTLAQIPMSTPVCMPSMITPTSFLDIPSTSSPMLPFQISTTTSPMLQRQTPILTPQMSPFKPVGVATPQPPALSNLSAGQELSSFILHSVVLQAQQAQQKTAQQLIPTSMPSELESTLSLLRLQQSSLGDLIKLSGIQLPTLPTTQPMLTPQMPTLPMMQKALPTVLPGSFQPFLQPTLFTNPV”, the “soluble on expression in E. coli” value is listed as “not soluble”.

Regarding “MGHHHHHHSHMAGAAEDARALFRAGVCAALEAWPALQIAVENGFGGVHSQEKAKWLGGAVEDYFMRNADLELDEVEDFLGELLTNEFDTVVEDGSLPQVSQQLQTMFHHFQRGDGAALREMASCITQRKCKVTATALKTARETDEDEDDVDSVEEMEVTATNDGAATDGVCPQPEPSDPDAQTIKEEDIVEDGWTIVRRKK”, the “soluble on expression in E. coli” value was “soluble”.

The values are drawn from the DeepSol protein solubility set.
